PMC6321028, “2′-Fluoro-Pyrimidine-Modified RNA Aptamers Specific for Lipopolysaccharide Binding Protein (LBP)”

Tests used:
[1] = biological target: T1, murine lipopolysaccharide binding protein (mLBP-His6) (Mus musculus, UniProt Q61805 25-481); assay: nitrocellulose filter binding; affinity comparable to A011, among the best binders (screen range about 200-800 nM); 140 mM NaCl, 2.7 mM KCl, 10 mM Na2HPO4, 1.76 mM KH2PO4, 2 mM MgCl2; pH not stated; 37 °C, 1 h; RNA refolded; mLBP 15-1000 nM; conditions: protein: recombinant; tags: C-terminal His6; label: 32P; three-helix junction (predicted)
T1 sequence: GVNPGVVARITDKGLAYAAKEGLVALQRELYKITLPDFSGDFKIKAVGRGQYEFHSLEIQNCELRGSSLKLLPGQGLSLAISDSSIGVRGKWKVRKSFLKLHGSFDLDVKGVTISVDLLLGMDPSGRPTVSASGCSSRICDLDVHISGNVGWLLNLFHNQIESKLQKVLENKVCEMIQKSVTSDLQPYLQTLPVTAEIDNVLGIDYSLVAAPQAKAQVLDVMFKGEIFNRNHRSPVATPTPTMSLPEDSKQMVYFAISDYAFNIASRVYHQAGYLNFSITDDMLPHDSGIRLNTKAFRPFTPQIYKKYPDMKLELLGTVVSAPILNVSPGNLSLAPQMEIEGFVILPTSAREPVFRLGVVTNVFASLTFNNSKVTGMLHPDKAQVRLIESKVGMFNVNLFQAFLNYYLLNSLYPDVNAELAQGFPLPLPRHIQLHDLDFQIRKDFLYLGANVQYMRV

[2] = biological target: EF-Tu (Thermus thermophilus, UniProt Q5SHN6 2-406); assay: nitrocellulose filter binding; 140 mM NaCl, 2.7 mM KCl, 10 mM Na2HPO4, 1.76 mM KH2PO4, 2 mM MgCl2; pH not stated; 37 °C, 1 h; RNA refolded; mLBP 15-1000 nM; conditions: label: 32P (internal or 5'); three-helix junction, helices P1-P4
[3] = biological target: T1, murine lipopolysaccharide binding …; assay: nitrocellulose filter binding; 2 mM MgCl2; 140 mM NaCl, 2.7 mM KCl, 10 mM Na2HPO4, 1.76 mM KH2PO4, 2 mM MgCl2; pH not stated; 37 °C, 1 h; RNA refolded; mLBP 15-1000 nM; conditions: protein: recombinant; tags: C-terminal His6; label: 32P (internal or 5'); three-helix junction, helices P1-P4
[4] = biological target: T1, murine lipopolysaccharide binding …; assay: 140 mM NaCl, 2.7 mM KCl, 10 mM Na2HPO4, 1.76 mM KH2PO4, 2 mM MgCl2; pH not stated; 37 °C, 1 h; RNA refolded; mLBP 15-1000 nM; conditions: protein: recombinant; tags: C-terminal His6; three-helix junction
[5] = biological target: T1, murine lipopolysaccharide binding …; assay: boundary experiment, nitrocellulose filter retention; 200 or 400 nM mLBP; no apparent effect on affinity; 140 mM NaCl, 2.7 mM KCl, 10 mM Na2HPO4, 1.76 mM KH2PO4, 2 mM MgCl2; pH not stated; 37 °C, 1 h; RNA refolded; mLBP 15-1000 nM; conditions: protein: recombinant; tags: C-terminal His6; label: 5' 32P; P1 pairs U6-G11 with C65-A70

Chain of EF-Tu (Q5SHN6 2-406): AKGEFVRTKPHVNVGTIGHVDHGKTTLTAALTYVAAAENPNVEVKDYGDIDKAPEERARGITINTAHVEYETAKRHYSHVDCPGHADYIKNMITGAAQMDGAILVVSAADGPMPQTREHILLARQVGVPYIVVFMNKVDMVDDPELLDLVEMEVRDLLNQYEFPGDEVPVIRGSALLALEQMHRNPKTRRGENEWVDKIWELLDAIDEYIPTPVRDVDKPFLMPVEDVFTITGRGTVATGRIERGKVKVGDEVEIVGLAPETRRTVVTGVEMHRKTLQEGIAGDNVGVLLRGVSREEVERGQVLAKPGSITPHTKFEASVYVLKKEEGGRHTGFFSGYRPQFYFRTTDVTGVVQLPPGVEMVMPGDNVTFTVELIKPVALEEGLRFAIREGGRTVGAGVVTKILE

B1: A036 (XNA)
RNA: GGGAAUUCGAGCUCGGUACCGAUAUACGGUGCCGCUUCUCUAACCGGUGGUCAUGCGGUUGGACGCUCGAACAGACUACUGCAGGCAUGCAAGCUUGG
modifications: 2'-fluoro C and U
B1: binds [1].

B2: A011 (XNA)
RNA: GGGAAUUCGAGCUCGGUACCGGACUGUGGAUUGUUCUGGGUGCCGCUUCUCCGAAUAUCGGACUCUCGAACUCCUGGGGACUGCAGGCAUGCAAGCUUGG
modifications: 2'-fluoro C and U (all pyrimidines); A and G ribo
With B2 the binding result [2] was “no binding” and the Kd [3] was 267 nM.

B3: A011 del 76-100 (XNA)
RNA: GGGAAUUCGAGCUCGGUACCGGACUGUGGAUUGUUCUGGGUGCCGCUUCUCCGAAUAUCGGACUCUCGAACUCCU
modifications: 2'-fluoro C and U
In the case of B3, the binding signal [4] is reported as ~5 fold reduction in affinity vs A011.

B4: A011 1-70 (3' boundary fragment) (XNA)
RNA: GGGAAUUCGAGCUCGGUACCGGACUGUGGAUUGUUCUGGGUGCCGCUUCUCCGAAUAUCGGACUCUCGAA
modifications: 2'-fluoro C and U
B4: binds [5].
